The record followed here is PMC8326117 (International Journal of Biological Sciences, 2021).

The target of the test is SARS-CoV-2 S-protein RBD (SARS-CoV-2, UniProt P0DTC2). In words: SPR. The settings on record: both partners purified.

What is called Kd is the constant that tells how readily two partners part at equilibrium. KKKKKKDKFNHEAEDLFY (also called 6K-modified AYn1 peptide) [S-protein neutralizing peptide AYn1] showed a Kd of 95.6 nM.
